The record followed here is the RNAGym collection of RNA variant scans (doi:10.1073/pnas.2313332121).

Sequences and labels used below:
B1: TPR 5TU (parent)
chain: GGAUCUUCUCGAUCUAACAAAAAAGACAAAUCUGCCACAAAGCUUGAGAGCAUCUUCGGAUGCAGAGGCGGCAGCCUUCGGUGGCGCGAUAGCGCCAACGUUCUCAACUAUGACACGCAAAACGCGUGCUCCGUUGAAUGGAGUUUAUCAUG

Fewer inactive variants are shown than the library holds.

The data set covers variants of B1. The data set can be described thus: polymerase ribozyme fitness, log enrichment relative to wild type (log ratio); higher = more active; in vitro selection for triplet polymerase activity. In short, it runs like this:
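Both subunits of a heterodimeric triplet polymerase ribozyme were given their own mutant library, built by PCR and transcribed. Each library was annealed with a biotinylated primer, the partner subunit and triplets, incubated frozen at −7 °C, and its extended constructs gel-excised, captured on streptavidin beads and amplified by RT-PCR, all in one round done in triplicate. Fitness is the logarithm of genotype enrichment relative to wild-type enrichment, with replicates averaged by inverse-variance weighting. That logarithm is base 2, and Illumina-sequenced genotypes needed ≥10 input reads and ≥1 read per output.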
For A29G C35G U56G G68A G81A C99A C114A G143C, the “polymerase ribozyme fitness (log ratio)” value was not above -4.2.
With A29C C54A G70U, the “polymerase ribozyme fitness (log ratio)” value is not above -4.2.
For the variant A28C A29U A107U A115G, the “polymerase ribozyme fitness (log ratio)” value was not above -4.2.
Consider A29C A41G G59C G62C G100A G141C, for which the “polymerase ribozyme fitness (log ratio)” value was not above -4.2.
In the case of A28U A37U A73G G92U A106G C118G, the “polymerase ribozyme fitness (log ratio)” value was not above -4.2.
The result for A28U C35U reads -4.12.
As to A28G G83C, the “polymerase ribozyme fitness (log ratio)” value was -4.1.
On to A29C G50U G81A C95A G133U, for which the “polymerase ribozyme fitness (log ratio)” value was not above -4.2.
Regarding A29G A49C G67A C114U U127G, the “polymerase ribozyme fitness (log ratio)” value was not above -4.2.
In the case of A28G A52C U53C C57U C87A G141A, the “polymerase ribozyme fitness (log ratio)” value is not above -4.2.
With A29C A30U A97U C103U C116G G133A, the “polymerase ribozyme fitness (log ratio)” value was not above -4.2.
In the case of A29C A49G C87A A150G, the “polymerase ribozyme fitness (log ratio)” value is not above -4.2.
With C27U C79U C87G U90C C96U A121U U134G, the “polymerase ribozyme fitness (log ratio)” value was not above -4.2.
As to C27U C51G, the “polymerase ribozyme fitness (log ratio)” value was -3.3.
As for A28U U55A, the figure is -4.13; as for C27U G86A, -2.94.
A28U A37C C79U C87U: the “polymerase ribozyme fitness (log ratio)” value was -3.89.
As to A29C C38G G65U U77A G81C A137G, the “polymerase ribozyme fitness (log ratio)” value was not above -4.2.
As for A28C C54A C95A C105U U145A, the figure is not above -4.2; as for A28C G46C G84A C85U C96U C116U C149U, not above -4.2.
The result for A28G A30U C32A C85A C95U A115U reads not above -4.2; that for A29C C35A, -3.91; that for A28C C32U A52U U53G C93A G112C G143U, not above -4.2.
In the case of A28U U53G A66G C69A C79G G94C C108G C129U A137U, the “polymerase ribozyme fitness (log ratio)” value was not above -4.2.
For the variant A28C C87G G117C A137U, the “polymerase ribozyme fitness (log ratio)” value is not above -4.2.
As for C27U U55A G70C A91U A97U A106G, the figure is not above -4.2; as for C27U G70A C87A, not above -4.2.
Take C27U U33G C95U: the “polymerase ribozyme fitness (log ratio)” value is -3.46.
For the variant A29C A41U G83A A138U, the “polymerase ribozyme fitness (log ratio)” value was not above -4.2.
As for A28U A37C C87A G117A G140C, the figure is not above -4.2.
As for A28C A41C C95A G128A G140C G143A, the “polymerase ribozyme fitness (log ratio)” value is not above -4.2.
Consider A28G A29U C43G A47C G84U A110U, for which the “polymerase ribozyme fitness (log ratio)” value was not above -4.2.
Consider C27U G94A, for which the “polymerase ribozyme fitness (log ratio)” value is -2.73.
As for A28G U53A, the figure is -3.62; as for A28U U44G U82G C87U C114U G133A U146G, not above -4.2; as for C27U G46A C75A A91U G94A, not above -4.2.
Regarding A29C U33C U44A G80U C85U C93U G136U, the “polymerase ribozyme fitness (log ratio)” value was not above -4.2.
With A28G A91C G126A, the “polymerase ribozyme fitness (log ratio)” value is not above -4.2.
With C27U G62A A97U A98C, the “polymerase ribozyme fitness (log ratio)” value is -3.33.
C27U C57A: the “polymerase ribozyme fitness (log ratio)” value is -0.747.
For A28C G86U, the “polymerase ribozyme fitness (log ratio)” value is not above -4.2.
For the variant A28U C35G C54A C79A G80C A89C G94A, the “polymerase ribozyme fitness (log ratio)” value is not above -4.2.
In the case of A29G A37U A47U U55A G84U A89G A120C G140C U144G, the “polymerase ribozyme fitness (log ratio)” value is not above -4.2.
Take C27U G86U C99G: the “polymerase ribozyme fitness (log ratio)” value is not above -4.2.
Turning to A28U C93U C118U A121G, the “polymerase ribozyme fitness (log ratio)” value is not above -4.2.
The result for A28U C75U G84U G86A C93U A106G A113U reads not above -4.2.
As for A28C G46C C76G U82A A89C G124A, the figure is not above -4.2; as for A28C G67A G100C A119G C131U U145G, not above -4.2.
For A28G U31G C36A U56A C95A G141C, the “polymerase ribozyme fitness (log ratio)” value is -3.69.
Regarding A28G U55A, the “polymerase ribozyme fitness (log ratio)” value was -2.49.
Regarding A28U A41U C79G G86A G136A G152A, the “polymerase ribozyme fitness (log ratio)” value was not above -4.2.
For C27U G92C U146C U151G, the “polymerase ribozyme fitness (log ratio)” value was not above -4.2.
As for A28G A29U C87G C96A, the “polymerase ribozyme fitness (log ratio)” value is not above -4.2.
For A28U A66U A73G G86U C103G C116U G152U, the “polymerase ribozyme fitness (log ratio)” value was not above -4.2.
Regarding A29G A37U G94C G141U, the “polymerase ribozyme fitness (log ratio)” value was not above -4.2.
Consider C27U G50C G141A, for which the “polymerase ribozyme fitness (log ratio)” value was -4.12.
As to A29G A30U C85A A107U C118G, the “polymerase ribozyme fitness (log ratio)” value is not above -4.2.
As to A28G A49U U56A A66U U90G A106U C108G A119G, the “polymerase ribozyme fitness (log ratio)” value is not above -4.2.
The result for A28C U151A reads not above -4.2; that for A28G C116U, -3.63; that for A29C G62U G80C C118A, not above -4.2.
As for C27U G58C C123U, the “polymerase ribozyme fitness (log ratio)” value was -1.57.
As for A28C U61A G88A, the figure is not above -4.2.
As for A28C A30U A60C C75A C76U C93A C95G, the “polymerase ribozyme fitness (log ratio)” value was not above -4.2.
C27U U31C A52C U78C U101A C125G: the “polymerase ribozyme fitness (log ratio)” value was not above -4.2.
Take A28U G84U: the “polymerase ribozyme fitness (log ratio)” value is not above -4.2.
In the case of A29G A41C A60U C85G G86U C116G G133C A142G A150G, the “polymerase ribozyme fitness (log ratio)” value was not above -4.2.
Turning to A28C C43U U56A A107C, the “polymerase ribozyme fitness (log ratio)” value was not above -4.2.
As for A28U G42C U44C C75G C96A A115G, the “polymerase ribozyme fitness (log ratio)” value was not above -4.2.
For A28U A37C U55A A106C U134G G140A, the “polymerase ribozyme fitness (log ratio)” value was not above -4.2.
As for A28C U82A, the “polymerase ribozyme fitness (log ratio)” value is not above -4.2.
Turning to A28U G50C G83C A110C, the “polymerase ribozyme fitness (log ratio)” value is not above -4.2.
The result for C27U C75G C85A C105G U130G U146G reads not above -4.2; that for A28G A40G G50A A52G G65U C96U, -3.77; that for A29C A40G C123A U127A, not above -4.2.
Consider A29G C35U U145C, for which the “polymerase ribozyme fitness (log ratio)” value is -3.89.
Turning to A28U A41C G88C, the “polymerase ribozyme fitness (log ratio)” value is not above -4.2.
Regarding A28U A30U A39U G50C C57G C75G U82A G83C G124U, the “polymerase ribozyme fitness (log ratio)” value was not above -4.2.
As for A28G A107G U144C, the figure is not above -4.2; as for C27U C57A A66C G71A C96A U130A, not above -4.2; as for C27U C54U G83U, -2.12.
Turning to C27U U61G A64U C96U, the “polymerase ribozyme fitness (log ratio)” value is not above -4.2.
On to A28U G50A C132U, for which the “polymerase ribozyme fitness (log ratio)” value is not above -4.2.
As for A29C C57A G68A G88C C114U G117C A122G, the “polymerase ribozyme fitness (log ratio)” value was not above -4.2.
